Biological target: Aar-MBP fusion protein (E. coli (EAEC 042))
Assay: SPR

B1: AggR-MBP fusion protein (natural protein)
chain: MKLKQNIEKEIIKINNIRIHQYTVLYTSNCTIDVYTKEGSNTYLRNELIFLERGINISVRLQKKKSTVNPFIAIRLSSDTLRRLKDALMIIYGISKVDACSCPNWSKGIIVADADDSVLDTFKSIDHNDDSRITSDLIYLISKIENNRKIIESIYISAVSFFSDKVRNTIEKDLSKRWTLAIIADEFNVSEITIRKRLESEYITFNQILMQSRMSKAALLLLDNSYQISQISNMIGFSSTSYFIRLFVKHFGITPKQFLTYFKSQ
Binder B1 has a Kd of 20 to 40 nM.

Reference: PMC4983702
